The test addresses T1, Rab14 (fluorescence titration) (human, UniProt P61106 1-215).
T1 construct: Rab14
In words: other fluorescence titration; fluorescence titration assay (Supplementary Fig. 8); conditions not stated in the text shown. The following applies: both partners purified.

The values below come from PMC6555802, “CHML promotes liver cancer metastasis by facilitating Rab14 recycle” (Nature Communications, 2019).

B1: CHML (fluorescence titration) (natural protein)
chain: MADNLPTEFDVVIIGTGLPESILAAACSRSGQRVLHIDSRSYYGGNWASFSFSGLLSWLKEYQQNNDIGEESTVVWQDLIHETEEAITLRKKDETIQHTEAFCYASQDMEDNVEEIGALQKNPSLGVSNTFTEVLDSALPEESQLSYFNSDEMPAKHTQKSDTEISLEVTDVEESVEKEKYCGDKTCMHTVSDKDGDKDESKSTVEDKADEPIRNRITYSQIVKEGRRFNIDLVSKLLYSQGLLIDLLIKSDVSRYVEFKNVTRILAFREGKVEQVPCSRADVFNSKELTMVEKRMLMKFLTFCLEYEQHPDEYQAFRQCSFSEYLKTKKLTPNLQHFVLHSIAMTSESSCTTIDGLNATKNFLQCLGRFGNTPFLFPLYGQGEIPQGFCRMCAVFGGIYCLRHKVQCFVVDKESGRCKAIIDHFGQRINAKYFIVEDSYLSEETCSNVQYKQISRAVLITDQSILKTDLDQQTSILIVPPAEPGACAVRVTELCSSTMTCMKDTYLVHLTCSSSKTAREDLESVVKKLFTPYTETEINEEELTKPRLLWALYFNMRDSSGISRSSYNGLPSNVYVCSGPDCGLGNEHAVKQAETLFQEIFPTEEFCPPPPNPEDIIFDGDDKQPEAPGTNNVVMAKLESSEESKNLESPEKHLQN
notes: choroideremia-like (CHML, REP2)
In turn, B1 displayed a Kd of approximately 0.36 nM.
